pKd: −log10 of the molar value.
Biological target: Lag3 (lymphocyte-activation gene 3), on transfected SH-SY5Y cells (not stated (human or mouse cDNA cloned)) (UniProt Q61790)
Experiment: cell surface binding assay (streptavidin-alkaline phosphatase staining); SH-SY5Y cells transfected with Lag3 or its deletion mutants; biotin-labelled ligand at different concentrations (monomer equivalent) in DMEM with 10% FBS, 2 h at RT; washed, fixed, bound biotin detected with streptavidin-AP and BCIP/NBT; intensity by ImageJ, KD by GraphPad Prism

Sequence of Lag3 (lymphocyte-activation gene 3), on transfected SH-SY5Y cells (not stated (human or mouse cDNA cloned)) (Q61790 24-521): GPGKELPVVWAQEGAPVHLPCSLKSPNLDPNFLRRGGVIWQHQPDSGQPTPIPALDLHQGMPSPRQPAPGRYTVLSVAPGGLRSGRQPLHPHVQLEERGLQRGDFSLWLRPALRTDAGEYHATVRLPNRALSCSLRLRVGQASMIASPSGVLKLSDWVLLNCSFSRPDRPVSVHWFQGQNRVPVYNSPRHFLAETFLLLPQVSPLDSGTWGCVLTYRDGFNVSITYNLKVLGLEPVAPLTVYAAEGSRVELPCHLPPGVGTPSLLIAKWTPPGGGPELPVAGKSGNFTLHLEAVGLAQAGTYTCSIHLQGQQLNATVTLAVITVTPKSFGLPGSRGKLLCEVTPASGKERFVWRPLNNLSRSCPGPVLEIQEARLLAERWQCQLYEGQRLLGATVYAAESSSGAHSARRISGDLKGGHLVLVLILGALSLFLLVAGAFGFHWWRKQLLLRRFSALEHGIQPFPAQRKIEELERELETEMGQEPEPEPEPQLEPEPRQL

A pKd of 6.64 was found for “Tau PFF derived from PSP (progressive supranuclear palsy) seeds” in this work.

Reference: PMC11040377
